Test results reported in a protein production outcome set (Wang et al. 2014).

Assay: label from the status in PepcDB records

MPKPHETAVYTHGHHESVLRSHTWRTAENSAAYLLGSLRPHMRILDIGCGPGTITADLAERVPEGHVTGVDRSPEIVERARATAAARGLENTGFAVADVHALDYPDDTFCVVHAHQVLQHVGDPVRALREMRRVARPGGFIAVRDSDYGAMTWYPASSGMDDWLDLYHRVARANGGEPDAGRRLKAWALEAGFTDITATSATWTFTTPEEREWWSGLWADRTLASAYAERATEGGHATPERLRAVSAAWRDWGKHPESWFSVLHGEILCRKEA
protein production: failed

MSKVVGLSSKKSRWLLQSLRDQQRHSLGTGFESANILLSPKYHLKDKDLRKIHKAARVGDAARVQQLLLGKCGVNDKDKKKRWQGPRDGGCGGGGACVEESPHTTALHIACAYGHPKVVMALIEGRCEINATDSEECTSLVKAVQCQEEECATILLENGADPNIVDAQGNSALHYAVYYKNTSLAAKLLDHEVNIEATNKVEILHQRGVNQSTIVAKCVENPGLQSTGTIFCPHLTPLPEQGLTSSLKLTVVLNLAGGGGGEVSRGGRETETDTGGFTPLLLAVSENKLQIAKFLLMKNANIHAVDNQKRTALMHAVSHDSTHLVRFVLQQGVDLFLNDAFGLTAIDYAADFKYNTKVKQHQGLEKKSKSVSENLPLIRIGVDGLLQVNGQAVEEGRKQEWSEWGASESLQAAALDGGDLTSPLPRRRNKQAGKPGTQESPSVDSKEQDGGSDLNIKEENKKGYEEWSRDFVNELTSEKFGSVACDLLPVKDSWSLNGMDPNKGRPAKRKSKEKHKVEASLMMAEHGIDL
protein production: failed

MKHAKKSLFTFIIFMTILSITFNPFSAKAAPLMLNLPAPQVDQLYIGDDYITGKLQQEVPMHYPGNAAYVLFNNKQYNITDYTVENDVNFRLKLPKTLEAGDTLNYFTITGNVLDPVAYPGQESYKLAGPFSPIEKANIQVNYVDETNQTLATSDTLSGKLGETYTTSPKAIDGYQVKETPTNATGTYTTNTETIQINYVYEKTAVEGANVSVEYINEATNESIAPTETLSGKIGTTFQAEVKEIDGYELSQVPSNQSGTYTDQTQSVIFKYKKITTPDEVAKDVTVTYKDTKGNQLADPVILKGDIGSTFETEAKSFKGYKLTKTPSNHSSVFTSDSQEVEYVYSKDDAVITPPVTPVNPDKPIINPVKPVNPATSTVPNKNISKKNTTKTVNQTGKTSTALQLPKTGDSENNLPLIIGVSLLISGVYIFTTRRKRVK
protein production: failed

KERERLEEKLEDANERIAELVKLEERQRIARDLHDTLGQKLSLIGLKSDLARKLIYKDPEQAARELKSVQQTARTSLNEVRKIVSSMKGIRLKDELINIKQILEAADIMFIYEEEKWPENISLLNENILSMCLKEAVTNVVKHSQAKTCRVDIQQLWKEVVITVSDDGTFKGEENSFSKGHGLLGMRERLEFANGSLHIDTENGTKLTMAIPNNSK
protein production: not failed

MRPAAARVLLGAFAFAVVADLASQALGSDTGHLLAKPLLMPLLAAYAAVRGGPRLLVVALLLGWAGDVLLLSDADPAFLAGMSSFAAGHVCYLVLFARHGRTRARGALLAGGYGLVLVTTVALLWPGLPAGLRVPVVGYSLLLTAMAYGATRLGPVAGLGGALFLLSDTLIATGVADWPQLPRPDFWIMLTYAAGQYLLVRGVTDTLGAPTAPAAAYGEVRSTTP
protein production: failed

MSIRIKLPDGSVREFEEEASIEDVAASISCGLEHAVAGKLNGKLVDLSTPLQDGALVEIVTRDSAEGQKIVREKSRGKGRIVALDAARGLAVIGMYLQHFALNETNGSIVSGNTTLLFVLCGGISYSIMAGRMMDRGMEPAAFRTRMLARAVFIDMIGYLLIMLNTPFGVILPAYAALFVLALVLIRRSTRVLVTTAAVLLAVSPPLMILGGSVLSGANLLGDIAGGPMSALALAPAFVAGMAIGRFDLTRMRTALSLVSSGAVMLIVSKLLGVFVLPWLSRSFEEWLVSVQGTAGAEPDQYAIWPHNVAPPLWHNLLSIAPHSASTFQTMLGLGAAFLVLGMVCLVPQKISAVLKPFAGVGRVALTMYAAQFVVIWALEISGAKYDIGAIPFGDLFVAAVATVTGWLIARLPTGPLETAMRRFDRAFSNLGPVTGPARLR
protein production: failed

MTVPWHLVALAFAVCLVVAAPGFLRVYYFVSLCYAGAIAAQSLVFALLFSTTISGWVTLQLLLLLIYGVRLGAFLAVRERNPAYAAELARAERRTAELKLWHQIAIWLGVSLLFTLLFLPALLTLSLQAQGAWPVSTPLGVMIMAVGLWVESLADWQKYRYKAEHPSHYCDTGLYRLVRCPNYLGEMVFWFGVWFSGLSAYGSGGAWTLTLLGMLYILALMTAAAAGLERKQDERYGDRPDYQEYVRSVPILFPWVPLFTLRKLLIRFR
protein production: failed

QQMQAESGFVQHVGFKCDNCGIEPIQGVRWHCQDCPPEMSLDFCDSCSDCLHETDIHKEDHQLEPIYRS
protein production: not failed

MGSGPELTQTSLETLQEALQTERITYVDTLNEDIGAVVESADQLAFDYVVGDVSDYGVSSNDHVHLDLVHEGSTIHCVLFGYKRSAIDATIEDGMQVAVKGSLSYYEDGGNVSVIVEDIVEVGEGTYQRIYEQNRQLLDSDGLLDPEHKQALPDFPERIGIATSATSDARMDAITSIHERYPDVDIVIQNTSVQGDDAMMSIMGAISELDDDPRVDVIVLTRGGGSDKHLRVFNETPLCRVIHKTETPVVVGVGHENDRTLADEVADRRVMTPTEAGNIVPERTTLEAELETLEERLNTAYTETAETTLETMDDRLTRAYRRTVESDLSAFEAELDRTYDTHVRDELTDLANRLEQARTQYDQQREREQEVAAHRRQRRRLLLILVALGLLVVALLLYILLPL
protein production: failed

MGKKKNKKTEVQQPDPMRKNWIMENMDSGVIYLLESWLKAKSQETGKEISDIFANAVEFNIVLKDWGKEKLEETNTEYQNQQRKLRKTYIEYYDREMK
protein production: not failed

MQFYNRQKELKLMELLDQGKPSFFVITGKRRVGKTELIKQFTRNRKALYLFVDSNKSINILMDEFDRLLKEKLDLPDYIKVDEPENFLKFITSYDRDLVIAIDEFQRFQKVYPSFITQLQRYWDMKPDNCRIFLIVSGSSIGMIRKIFIEEQAPLFKRADNILTIKPFTVLETFEMLDGMGIKNPEEKLNLYFLFGGTVYYYRLFEKYQCTGFDDALEKLIFSEFAPLKNEVREILIEEFGKEHSTYYEIISAISQGRCSMSEISDMTHVSSSSLSPYFYDLIDLLGVVEHRIPVMDNPEKSKRGRYFLKDNFFRFYGRFIYPMYSRYMAGNYSPMLEKVRKEWQSYTGKIFEDIVHELLVEKMISDYPELGSWWNRKGDEIDILGVDHRGRKSLVIEVKNKELAENEAREILELTLDKTKLVKGISGQKLKVGIVAQKVKGRKNLEDDGFLVWELEELIPLEHHHHHH
protein production: failed

MKFNEFLNNLSNYEPGKDIEVIAKEYGVKEVIKLASNENPFGTPPKAIECLRQNANKAHLYPDDSMIELKSTLAQKYKVQNENIIIGAGSDQVIEFAIHSKLNSKNAFLQAGVTFAMYEIYAKQCGAKCYKTQSITHNLDEFKKLYETHKDEIKLIFLCLPNNPLGECLDASEATEFIKGVNEDCLVVIDAAYNEFASFKDSKKHLEPCELIKEFDNVLYLGTFSKLYGLGGLRIGYGIANANIISAFYKLRAPFNVSNLALKAAVAAMDDDEFTEKTLENNFSQMELYKEFAKKHNIKIIDSYTNFITYFFDEKNSTDLSEKLLKKGIIIRNLKSYGLNAIRITIGTSYENEKFFTEFDKILR
protein production: not failed

MLDDVLALIREHDRFFITTHLGPDGDAVGSQLALGRFLEKMGKSVAMVNADEVDYNLDWMPGAGDIAVFDGSLGQHEALAEAEVAFVLDTNDEERIGKVGSLVRDATATTVLVDHHLEPEHWFDVFFVREEAAATGELVYEIIDGLAPDLIDEGIATALYTAIMTDTGSFRYSSVTPALHRSVADILERGGIGPAPIHETIYDRKSMPGLRLLGRMLNRIRLRYNGQLGYSVVTQRMVEDTGASWDDKQGFVNYVLSIEDVKTALLFSETDDGAKISFRSEADVRVDQWARHFGGGGHRNAAGAYVKRPTFEKTIETVIDAASDYIAFDARHAPDDDLSPEDQSYLETLLDDPSDSPLEHHHHHH
protein production: failed

MKNGGVFVSIALLVTITLVMGVIFVNGWTDAPNAIATAVSTRVLKPNVAIWMAVVMNFLGALVMTFFNAQVAETISNIVSFDANGNASQVALAASLFSIVVWAVAAWYFGIPTSESHALIAGLTGSAMALGGLGAVNGSEWIKVLVGLVVSTVMGFGGGYLIAKLVVKAFSAVPRRKANKFFTVGQAFGAGANAFLHGAQDGQKFMGVFMLVLFYNNLVEKTGGGFVIPLWVMVLCSITMGIGTSVGGMRIIKSVGMDMVKLERYQGFTADLSTAICLFLASAFGIPVSTTHTKTTAIMGVGASKRISSVDWRIVKEMLIAWILTFPGCGLIAYVMSKLFIAIF
protein production: failed

MRQHLSLFPFILFLLLAFSYVGCRTVRQTPKQSERYVVVLSLDGFRPDYTDRARTPALDRMAQEGLSGSLQPCFPSLTFPNHYSMATGLYPDHHGIVANEFVDSLLGIFRISDRKAVETPGFWGGEPVWNTAARQGIRTGVYFWVGSETAVNGNRPWRWKKFSSTVPFRDRADSVIAWLGLPEKERPRLLMWYIEEPDMIGHSQTPESPLTLAMVERLDSVVGYFRKRLDSLPIAAQTDFIIVSDHGMATYENEKCVNLSHYLPADSFLYMATGAFTHLYPKPSYTERAYEILRAIPHISVYRKGEVPKRLRCGTNPRLGELVVIPDIGSTVFFAINEDVRPGAAHGYDNQAPEMRALLRAVGPDFRPGSRVENLPNITIYPLICRLLGIEPAPNDADETLLNGLIRDKRP
protein production: failed

AIAASLSDQSGSIGSEQTRPSGAIPVESLPPQALEQLIASLQQEVEQLADALQQLNFANQRWTLCKQSIEAFAEETTRVDLPGAQSRATDAISSTASAKPETSVEVNQNQRLLVPLSRSLYVLGRVINPERCLIDIGTGYHVERKLADAAEFFDRRLKHVRGSMRQLTLKIDQNQQQMQTIREILVRKLAGAQQAAEHT
protein production: failed

MNKNLNTFTSMRNDRQLHLYLAWGCPFCHRILASLAITKLDDNISITWMENIKGEAGWKMYFIEDPLFNSDSLKAVYQQLEPTVEHRYSVPLLVDKKNNLLLSTSSPEIVRYVAKGFDDAFSVAYDLIPNKLIKDIDEMNQWLHDKINRAVYLVGFATQQSDYEYKLYELFKALDELEERLKKQLFLFGNQLTESDLYLLATLERFDNIYFCLFKCSLKRIADYPALFRYHNQLRGMESLASTYQPVLTKEHYFMSTMHVLGEARELNPSKIIPIDYYP
protein production: failed

MNYECLIGVLSCLLVALPKGNCHSISGLNSTLNLPEIRGDQFLYFGFGSNMLIKRIHIQNPSAVRIGPALLPDYRLDFALESAGWSGSVATIVPTQGDHVWGTLWKIDLSNLPDIDSQEGVSQGIYEPRTVYVKLHGESESTPARAYLLTKQPESNLYELPKDSIPLSRQPSKTYLQCLVKGAIESSVPEDYVQRLRSIKHNGQVNSYLERKLELGGVTL
protein production: failed

MKGEESVQLQSIEKRVSSGHSPSCAEILLSTIQEMNREENLLKALDLFTQRSLVLFDCDVAAIYLLEQGKYKPFSVSFRDDKDRETLMLREFPQDFREIGTEVVETDEEWVLALSHFGKTLGAYVLKGRRSQCRDEGSAVFVKQVISIISSFIFERILKIDSLSREQALTLLLRGTEILVRADSEEQLLSEAGEMAMEILFLPGGFFLLEGAGGTWEIRSPFGRLKQEMEWDWRTWVRQYISKEECCLRSAKVHFFDIENNPFKWERVWIHPLQTHSGVVGELWLMNAGKYLNDQEQEILTAFIRVVGVALETIRQREELARLANTDRLTGILNRQGFEQRVREEIASTLRRDSRFLFLVLDLDRFKQLNDTLGHPMGDRALKEIAQNLRCAVREQDIVARTGGDEFTVVLTDIALNEESLTVIERMRKSMHLEEYNLGVSIGVAEFPTEGRTYDELYRLADQRLYRGKNSGKGNIIAD
protein production: failed
